Stoichiometry N data for one substance are collected here from article PMC5666114.

In the experiment the target is Anbu-1 protein from Pseudomonas aeruginosa (Pa-Anbu), wild type (Pseudomonas aeruginosa PAO1). Kind of experiment: SEC-MALS; static light scattering after Superdex S200 10/300 GL; 100 µl protein at 0.5, 1 or 2 mg/ml; 30 mM MOPS/NaOH pH 7.2, 150 mM NaCl; three independent experiments.

“Anbu-1 protein from Pseudomonas aeruginosa (Pa-Anbu), wild type (natural protein)” yielded a stoichiometry N of 12.
